US20200368125A1, “FAST-ACTING BIOCIDAL CLEANSING COMPOSITION” (Conopco, Inc., d/b/a UNILEVER, priority 2017, published 2020)

Test: Zeta potential measured using Malvern Zetasizer
Type: physicochemical
Settings: 2 ml sample; alkaline (KOH) aqueous medium
Description: The Zeta Potential was measured using Malvern Zetasizer (2 ml sample). […] The error bar of ±0.2 mV […]. […] Usually Proteins tend to destabilise/degrade in the presence of strong alkalis like KOH but the stability of the complex, so prepared, was confirmed by ^1H NMR. […] Surface charge around protein changes with change with complex.

sericin
Zeta Potential: −15±0.2 mV
